Assay results from PMC9889334.
Each block holds one substance with its values, some of them ahead of it.

Legend:
[1] = target: PaPcc2 with C-terminal hexa-histidine tag (Pyrococcus abyssi Pcc2) (Pyrococcus abyssi); assay: SEC; Ni-NTA eluate on HiLoad 16/600 Superdex 200 pg or Superdex 75 pg; 20 mM Tris-HCl pH 8, 500 mM KCl, 10% glycerol, 5 mM ß-mercaptoethanol
[2] = target: CBKP2, PaKEOPS complex with PaPcc2 in place of PaPcc1 (PaCgi121/PaBud32/PaKae1/PaPcc2) (Pyrococcus abyssi) (UniProt Q9UXT7); assay: SEC-SAXS; purified complexes loaded at 2.55 (CBKP1P2), 0.72 (CBKP1) and 3 mg/ml (CBKP2) on a Bio-SEC3 column; 20 mM Tris pH 8.5, 300 mM NaCl, 5 mM 2-mercaptoethanol, 5% glycerol
[3] = target: PaCgi121;PaBud32;PaKae1;PaPcc1-His6;PaPcc2-Strep (Pyrococcus abyssi;Pyrococcus abyssi;Pyrococcus abyssi;Pyrococcus abyssi;Pyrococcus abyssi) (UniProt Q9UZ62+Q9UYB9+Q9UXT7+Q9V1Z9+A0A915Q984); assay: fluorescence anisotropy; conditions: CBKP1P2 complex; 3 mM Mg2+; n=3; 20 mM Tris-HCl pH 8, 150 mM KCl, 3 mM MgCl2, 1% glycerol, 1 nM labelled tRNA (10 nM in Suppl. Fig. 7C), 20 °C, 15 min
[4] = target: PaCgi121;PaBud32;PaKae1;PaPcc2-His6 (Pyrococcus abyssi;Pyrococcus abyssi;Pyrococcus abyssi;Pyrococcus abyssi) (UniProt Q9UZ62+Q9UYB9+Q9UXT7+A0A915Q983); assay: fluorescence anisotropy; conditions: CBKP2 complex; 3 mM Mg2+; 10 nM tRNA (Suppl. Fig. 7C); 20 mM Tris-HCl pH 8, 150 mM KCl, 3 mM MgCl2, 1% glycerol, 1 nM labelled tRNA (10 nM in Suppl. Fig. 7C), 20 °C, 15 min
Chain of PaCgi121;PaBud32;PaKae1;PaPcc2-His6 (Pyrococcus abyssi;Pyrococcus abyssi;Pyrococcus abyssi;Pyrococcus abyssi) (Q9UZ62 whole entry, chain 1 of 4): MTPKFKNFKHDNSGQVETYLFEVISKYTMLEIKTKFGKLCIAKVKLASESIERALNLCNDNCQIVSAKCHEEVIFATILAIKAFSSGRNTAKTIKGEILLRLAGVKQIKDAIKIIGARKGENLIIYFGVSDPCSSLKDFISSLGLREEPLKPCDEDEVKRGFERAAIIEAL
Chain of PaCgi121;PaBud32;PaKae1;PaPcc2-His6 (Pyrococcus abyssi;Pyrococcus abyssi;Pyrococcus abyssi;Pyrococcus abyssi) (Q9UYB9 whole entry, chain 2 of 4): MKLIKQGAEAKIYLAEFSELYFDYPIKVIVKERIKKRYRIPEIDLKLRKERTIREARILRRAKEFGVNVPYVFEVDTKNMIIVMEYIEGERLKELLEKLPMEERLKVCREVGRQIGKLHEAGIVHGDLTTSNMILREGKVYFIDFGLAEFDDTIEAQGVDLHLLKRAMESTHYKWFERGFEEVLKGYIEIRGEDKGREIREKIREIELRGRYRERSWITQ
Chain of PaCgi121;PaBud32;PaKae1;PaPcc2-His6 (Pyrococcus abyssi;Pyrococcus abyssi;Pyrococcus abyssi;Pyrococcus abyssi) (Q9UXT7 whole entry, chain 3 of 4): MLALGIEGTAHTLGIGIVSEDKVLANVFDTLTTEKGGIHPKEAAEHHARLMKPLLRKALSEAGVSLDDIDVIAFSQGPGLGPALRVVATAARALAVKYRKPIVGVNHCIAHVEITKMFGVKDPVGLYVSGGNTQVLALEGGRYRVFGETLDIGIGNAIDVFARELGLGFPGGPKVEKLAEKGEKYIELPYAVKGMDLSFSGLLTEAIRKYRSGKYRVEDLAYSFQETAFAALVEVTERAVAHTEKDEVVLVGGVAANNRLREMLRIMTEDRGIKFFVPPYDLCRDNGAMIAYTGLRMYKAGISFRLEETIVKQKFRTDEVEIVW
Chain of PaCgi121;PaBud32;PaKae1;PaPcc2-His6 (Pyrococcus abyssi;Pyrococcus abyssi;Pyrococcus abyssi;Pyrococcus abyssi) (chain, as listed by the source, chain 4 of 4): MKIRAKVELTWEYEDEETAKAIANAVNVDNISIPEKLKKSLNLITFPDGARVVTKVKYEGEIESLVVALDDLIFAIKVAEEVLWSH

stoichiometry N [1]: 2
Substance: PaPcc2 with C-terminal hexa-histidine tag (Pyrococcus abyssi Pcc2) (natural protein)

Substance: CBKP2, PaKEOPS complex with PaPcc2 in place of PaPcc1 (PaCgi121/PaBud32/PaKae1/PaPcc2) (from UniProt Q9UXT7 1-324)
stoichiometry N [2]: 2

Substance: GGGCCGGUAGCUCAGCCUGGUCAGAGCACCGGGCUUUUAACCCGGUGGUCGCGGGUUCAAAUCCCGCCCGGCCCGCCA [Pa_tRNALys (UUU)]
Kd [3]: 100 nM
Kd [4]: 1800 nM
